Experiment: label from the status in PepcDB records
With “MRFSRARTEEVLRALVHEIRAERLTFMAGSIAYHAFLSILPLLLLVLTFVQRTENVTLRASIVGIMEAVLTTQASGIIQQGLTEADASVSALGVGFLLWGSLRIFRGLDTAFSDIYETGASNTFLDQLGDGLVLLVTVAVAILSASALGSVLPETGSGPLWTVASGLVRAAGLFVVFYPMYYIFPDTDVSPLEAVPGVAFAAIGLTVAQVLFTAFKSGSTGGNIIASILVLLSWLYIIGLVILLGAAINAVLSNRSADVDIDPVVGEHSQQNTIRTTTMSREALLAELETLADRFQQGQGTITVEIADERTDIDCPETATVDRSSDVFGLDQSVALTLRWWPNEK” the protein production was “failed”. For “MRFTNTILMTTFTALLAVALVAGCASKKKDETDPFFSKWQSLASNSTGFSPPKVVRDVKPKTLLRQEEVTAKQEEQKRPLPQMPVTLKLHNVDVGVALRSLAAAANTSIIVSPGVKGTASINVNRVPWEDVFKGILASNALDFAWRGELIQVMTLADKKAEVERELLETQRMAQQLKGRKVGPLVTSVIEVRYAEAAELKKNLEGFLSKDEQNKPVGAVVVDTHTNSLIVQAVEDDLSKIITLVNNLDKPRAQILLKAHIVEATRDTARDLGIQWGGVGRSGNMGDGNRMWVTPGGSGPTKPTDPQAGGGVPVIPPGGLSGQGFGMNFPVNKAGKTAMGSLGLMFGTIGGNMLEVQLSALQDNGKLNILSSPSISTLDNQMAFTENGEKVPYVSTNAQGDREVKFEDAVLRLEITPHVIDESNLKLKVQVKKDEVDLTRTVEGNPFIIKKQTETTLIVQDGETVVISGLTKERSSTRRQGLPYLQDVEGIGALFGNDSKANKLEDVLIFITPAILPYREETSVN”, the protein production was “failed”. With “MRGAESLVTLNHKILRPCRKLLIRITKSCPRRHNRHLKLKKASSSSSTASGNKVTKVVALFFLSFHKKKQKKEKMKRLNELRSFSHAVNDQKKKAPKQESSKKVFPSRLTMSWLGQGKGNNNNTQEVPQEHDARRDSTSAFIP” the protein production was “failed”. With “MRGIAIIFIVLGHSIYNSGEGFPVLLENLLRGGTALFVFISGYFFHRIFYKDFDYGKFMKNKVQNVLYPFLFVSIVGLFCLSLRWVFMEHQSLEQVLLSIFYTVRNGYILYPHWYIPFIMAVFLFSPVFLWFIRCSQQMRWTLFVLSCVVAILLHRPIGNVNFIHSVVYYLPFYLIGILYSQDEHIVTRYGSILSALAGIFLVVSLVEQSYIVQHVGNYHKAPFEYNGIDWQFIQKLSLCVLVLNFCDWLSQRSRLPWLIETAEMSFAIFFIHPLFDMLFNTTATIFRYRFPPDSWVTSILFSFGIFLFLMVSSMMTARLIKKRLGNRSRLFIGW” the protein production was “failed”. With “MRGILRMTVLAAAVFGVAGNALAEDWKLAKDEDGVKVYLSSVQGSKYKAYRGVTDIKADVATIEALQEDVKGSCKWIHACAEMKLLKQEGADAWTYSKIDMPWPVTGRDVVIHVTTEKTADGTVIRHLKADPTYIPEEKGQIRVPKLVGEWKLQPKGQGVTEVTYQVETEPGGSIPSWLANSFVVDAPLNTLKGLRSAAEKR” the protein production was “failed”. In the case of “MRGKQSHMSCEHYSNNCLVRFECCSSLYPCRLCHDKAEAHRANRYEVSQIVCGTCNLLQPKTQTCLQCLAAVSKYFCSKCNLWDSSDDQIFHCDGCNVCRRGDPKSSFHCDICQTCLVTRGPRDHTHVENTASGNCPICAEEMSESMEVLVLLRCGHSLHERCFNEFIKETYTCPMCSKPIGDTSIINRKVECLLGMEPPSPEQSPKNIAKCTNCNNLSKCGAIQNKCPFCGLRGVVDAAQEKNVKSQCLKPEE”, the protein production is reported as “failed”. For “MRGLAACYSEHAIKVSDTYCSGPSNHSYISPTLPPSIPDTVTTTYRSNLPSSDKPVSVSLTWSDNLTVVISTPPKSYSVSLRKPKGSRKLTSSSGSLNAEILWDLSEAEYENNGPEPIRRFFVVVVVNSEITLGVGDVDHERDTSSSSSWRVSKTERFSGTCWLTTKAQFSDVGRKHEIQIQCGGGGGGGGEEGYLWKVKSPETMSVYVDKRKVFSVKKLKWNFRGNQTMFFDGMLIDMMWDLHDWFYKETLSSVSTSSSSKTASSSSSSSTSSSTPPCAVFMFRRRSGLDSRLWIDEDEQESEMKKNIGSRDEKHSFSLIICASKK”, the protein production was “failed”. For “MRGLSLSPVVLPEVRREAGVELRKARLEDVDAIYWLIRYWAEKGLMLVRSHSHLYENIRDFWVLEDEDGQIVGTVALHVLWRDLAEIRGLAVHPTRQGQGLGRWLVLGAEREARDLGLPRVFAWTLQVNFFRALGYRVTSR”, the protein production was “failed”. For “MRGLSRNSGAAAIFAILLILAVHNWSVAVSSQSTEFAGDFPPFETECRGTIAECSVSAALGDGGDLFYGGGEMGEEFEMDSEINRRILATRRYISYGALRRNTIPCSRRGASYYNCRRGAQANPYSRGCSAITRCRRS”, the protein production was “failed”. With “MRGPGSASVRGYGQCKDTLHTSSPFHEAPASVRRPRTTGRVHTLGIRAPPPPRSQPEFLFSGNPFAPVSSVQRDAARRVSPRIPSLDQASRRPVAKLVVPGGNGFIGTEICRVAVQNGHEVAAFGRTGRPALTPARHPWVQDVEWRAADVFAPDAWRDLLDGADAVVHTIATIREHPDRNVTFDRVNAESALRAAEAAVAADVGAVVFLSVRDKPPLVPYAFLSAKRRAERALREDHPSLRTVTLCPNLVYGARKTGTPTLAAVLNQAQGMRPHPYATAEGRPLPVEFVAAAAVQAAVTSTMEGTLTVPQIDDIGRTSGLVDPNAASTPSLAPLLVGLGGTALGAWLLRRWRAS” the protein production was “failed”. In the case of “MRGPLSRPVCMKLGIDFGTSNSAAAAIVDGQVVPVRFGQALQFRTTVYFPETMRDPDDFSLTPALEYEVERLIDSGRRDALAAGRTPNNDSLRRDAIRIVRRQWMEEQVREPRSSAALLQNAVYGDEALDAYFLEGEGSLVQSPKSMLGYNLHPRARQTMTGIATHVLEHIRLTASRQFDINIRHATLGRPVQFRSSIGEAGNAQALEILQTAAIAAGFDSVDFLEEPAAAAMHYHVSHDSRHDTVVVDIGGGTTDVAHASVGGSAAPQVHRAWGIARGGTDIDLALSLAAYMPLFGRGITRVPTHHYVEAAMVQDMTRQREFRLHKYQDVPAPFDRRLQALQDTGNTARLYRGVEACKIALSELDRHQDALDFIERGLGVDVQAGALVASASNYLDELEGLLAQVRTEMATAPATVFLTGGMSRAGYIRDTVAAAFPESRLVHGDPSFGVVQGLAWAAAQDARLSDG”, the protein production is reported as “failed”. In the case of “MRGSHHHHHHTDPALRAATLLQLHFAFNGPFGDAMAEQLKPLAESINQEPGFLWKVWTESEKNHEAGGIYLFTDEKSALAYLEKHTARLKNLGVEEVVAKVFDVNEPLSQINQAKLAGLCGR”, the protein production is reported as “not failed”. With “MRGYVLGLLALNLLTLIWGTTFVVVKGAVEGMAPSLLILLRFGVAALFFLPWLFRLPVGVFGPGMELAFWLFVGYASQTLGLAHTSASRSAFITALSVVLVPLLLRLAGREVGPAFLAAFLALAGVGLLSYDPYQPPFNVGDLWTFLTALAYALYIVRLEVHARAFPSLPLTAVQVLGTALFALPWVLAEGGAWGPVAWGAVLYLGVVATALTTWLQTWGQRHVPAPQAAILYTLEPVWAAFFAYLALGERLSPSGLLGALLVLLATLLAIRRSPA” the protein production was “failed”. For “MRHFGPISGIATFKDTYVATAGYDNQVILWDARTRTPIQRVLHDHLANQCAFNAAGTLLVSASSDYTARVWEVPSLRLKTVLIGHDDDIEMAAFSPDGQTIATCSRDHSIRLFNLSGQTLRILHGHTADVISVCWSADGQTLVSSSDDGSIRRWDANTGQQLETIDLGGVETDTVALSREGIIFAGDDEGKISIISPRGTLLQPAHSAGIKRIIWDDSQRLLISLSYDRSVMLWHLKQDGTLVKTAETSLPSIIWPRSCALLGSHRIAFVTFGSRYATWDFATQTWDLSGIEPAVSLNAVAVVGEDVYSIGDAGILHINGQPSIKAGSLCNFLLPFGDSVLTGGQMGTVFDARTGATLYQHRSPLNCGTTFIKDGALHAAIGTYTGEALIFCLDQQQPRFVTQVRMHENAIKGIAADETYIFSVCATAAAAFFRIADFGLETYLDKAHERISNGCTQIQGGFASIGRDLKLRLWRDGASEVFDTPHSHSIKCIAISRDRSMIATGSYGGTVAVFDLKKRVWASVEKPTASGISCLIHDASGEGFLASAYDGRIYPITPRAAVQSARP”, the protein production was “failed”.
